In patent US20030100049:

Molecular target: Crosstide substrate peptide (UBI)

B1: MyrAkt3HA (full length human Akt3 fused to the myristylation signal from human Src at the N-terminus and to an HA-tag at the C-terminus) (protein)
chain: MGSNKSKPKDASQRRRSSDVTIVKEGWVQKRGEYIKNWRPRYFLLKTDGSFIGYKEKPQDVDLPYPLNNFSVAKCQLMKTERPKPNTFIIRCLQWTTVIERTFHVDTPEEREEWTEAIQAVADRLQRQEEERMNCSPTSQIDNIGEEEMDASTTHHKRKTMNDFDYLKLLGKGTFGKVILVREKASGKYYAMKILKKEVIIAKDEVAHTLTESRVLKNTRHPFLTSLKYSFQTKDRLCFVMEYVNGGELFFHLSRERVFSEDRTRFYGAEIVSALDYLHSGKIVYRDLKLENLMLDKDGHIKITDFGLCKEGITDAATMKTFCGTPEYLAPEVLEDNDYGRAVDWWGLGVVMYEMMCGRLPFYNQDHEKLFELILMEDIKFPRTLSSDAKSLLSGLLIKDPNKRLGGGPDDAKEIMRHSFFSGVNWQDVYDKKLVPPFKPQVTSETDTRYFDEEFTAQTITITPPEKCQQSDCGMLGNWKK
- Kinase activity of anti-HA immunopellets (32P incorporation into substrate peptide, scintillation counting): Kinase activity present in CMV6[MyrAkt3HA] transfected samples was 20 times higher than that present in cells transfected with the control vector CMV6
